This passage reports binding signal results from patent US20220348923, “CA-IX APTAMERS AND DIAGNOSTIC AND THERAPEUTIC USES THEREOF” (BRACCO IMAGING S.P.A., published 2022).

In the data set the target is Carbonic Anhydrase IX (CA-IX) (Homo sapiens, UniProt Q16790 Q16790:38-414). The data set can be described thus: RT-qPCR cell binding, 100 nM, 15 min, 37 C, acid condition. Background: Quantitative PCR measures a nucleic acid by following its amplification.

The molecule UCGAAUGAACCAAGGUUCCUCGGC (ssRNA, 2'-F pyrimidines) [SAM-2.T1] yielded a binding signal of 2.4 fold over COS7-WT. Next, UUCGUGCCGCUGAGUGCGUACGGGC (ssRNA, 2'-F pyrimidines) [SAM-1.T1]: 1.3 fold over COS7-WT.
